In US20110076265A1 (POMONA RICERCA S R L, published 2011):

Biological target: T1, HA protein (H1-subtype hemagglutinin) of influenza A virus A/California/04/2009 (influenza A virus A/California/04/2009 …, UniProt P26140 18-566)
T1 construct: also called H1 HA (A/California/04/2009)
Assay: FACS on fixed HEK 293T cells transfected with HA construct, Fab49 at 10 µg/ml

B1: Fab49 (human monoclonal Fab fragment produced by bacterial clone INF49) (Fab, V domains shown)
VH: LESGGGLVQPGGSLRLSCAASGITFSSYAMSWVRQAPGKGLEWVSTVNSGGGSTYYGDSVRGRFTISRDNSKSTLYLQLNSLRAEDTAIYYCAKDKGRPIFGLVTPSYYMDVWGNGT
VL: ELTQSPSSLSASVGDSVTITCRTSERISTYLNWYQQKPGKAPRLLVSGASTLQGGVPSRFSGSGSGTAFTLTINSLQPEDFATYYCQQSYSTPLTFGGGT
- binding result: binds
